Test results: patent US12419937B2, “High concentration alpha-glucosidase compositions for the treatment of Pompe disease” (Amicus Therapeutics, Inc., priority 2012, dated 2025)

Legend:
[1] = reported; cited from earlier work
GAA KO mice [2] = test: Tissue glycogen reduction in GAA KO mice (Example 9); format: in vivo, mouse; settings: Myozyme® 40 mg/kg IV every other week for 8 weeks ± 30 mg/kg oral 1-DNJ-HCl, relative to untreated mice
Procedure: Glycogen reduction with Myozyme® alone was 93±1%, 41±4%, 69±3%, and 18±4%, in heart (A), diaphragm (B), soleus (C), and quadriceps (D), respectively, relative to untreated mice.
Twelve-week old male GAA KO mice were administered a single dose of Myozyme® (40 mg/kg) via bolus tail vein injection every other week for 8 weeks. To prevent anaphylaxis, before the third and fourth Myozyme® injection, diphenhydramine (10 mg/kg intraperitoneally) was administered 10 min before Myozyme® injection. […] Mice were euthanized 14 days after the last Myozyme® administration.
Glycogen levels in heart, diaphragm, soleus, and quadriceps were then measured. […] Briefly, homogenates were prepared by homogenizing ˜50 mg tissue for 3-5 seconds on ice with a microhomogenizer in […] deionized water. Supernatants were heat denatured (99° C. for 10 min) to remove endogenous amyloglucosidase activity. Denatured lysates (4 μL) were then analyzed in duplicate by addition of 36 μL water with and without 10 μL of 800 U/mL of amyloglucosidase (Sigma Aldrich, St. Louis, MO) and incubated for 1 hour at 50° C. The reaction was stopped by inactivation at 100° C. for 10 min. Finally, 200 μL of glucose reagent (Sigma) was added absorbance read at 340 nm on Spectramax. A standard curve ranging from 5 μg/mL to 400 μg/mL Type III rabbit liver glycogen (Sigma) was run each day for conversion of absorbance to absolute glycogen units. Simultaneously, the amount of protein was determined in tissue homogenates using the Micro BCA Protein Assay (Pierce, Rockford, IL) following the manufacturer's instructions. The glycogen content of each sample was normalized to protein, and data were finally expressed as micrograms of glycogen per milligram of protein (μg/mg protein).

GAA KO mice [3] = test: Myozyme® tissue uptake in GAA KO mice with and without oral 1-DNJ-HCl (Example 3); format: in vivo, mouse; settings: 10 mg/kg IV weekly; 7 days post injection
Procedure: Five groups of GAA KO mice were administered one of the following formulations: […]
(2) 10 mg/kg of Myozyme® IV once per week, for up to three weeks
Tissue homogenates were generated for analysis. Enzymatic activity as determined using a 4-MUG fluorogenic substrate assay.

[4] = target: T1, recombinant human GAA (Myozyme®) (Homo sapiens, UniProt P10253); test: SYPRO Orange thermal stability assay (heat-induced denaturation); format: physicochemical; settings: pH 5.2 vs pH 7.4; no ASSC
T1 construct: purchased Genzyme Corp
Source text: The thermal stability assay utilizes heat to induce protein denaturation, which is monitored using a SYPRO Orange dye that fluoresces upon binding to hydrophobic amino acids (which are not exposed in a folded protein).
FIG. 5 depicts the results of a thermal stability assay that utilizes heat to induce protein denaturation, which is monitored using a SYPRO Orange dye that fluoresces upon binding to hydrophobic amino acids (which are not exposed in a folded protein).
Denaturation is monitored using a SYPRO Orange dye that fluoresces upon binding to hydrophobic amino acids (which are not exposed in a folded protein).
The thermal stability was performed at pH 7.4 for two formulations, which corresponds to the pH of the ER.

GAA KO mice [5] = test: rhGAA activity uptake after Myozyme® IV bolus in GAA KO mice (comparison study of Table 3); format: in vivo, mouse; settings: 4 doses 20 mg/kg IV bolus at 2 week intervals, 3 days after the last dose
rhGAA (e.g., Myozyme®) = target: T2, rhGAA (e.g., Myozyme®) (Homo sapiens, UniProt P10253); test: rhGAA enzyme inactivation in citrate anti-coagulated whole blood at 37° C. (Examples 7, 8); format: in vitro ADME; settings: for enzyme inactivated in whole blood: no 1-DNJ-HCl
T2 construct: purchased Genzyme Corp; host or cells: Chinese hamster ovary cell line
Procedure: Aliquots were collected at 0, 2, 4, 8 and 24 hrs and centrifuged to obtain plasma. These plasma samples were then diluted in potassium acetate buffer (pH 4.0) and assayed for GAA activity using the 4-methylumbeliferyl-α-glucose (4-MUG) fluorogenic substrate. The measured GAA activity for individual samples at each time point was normalized to the 0 hr and expressed as % of initial activity. Data from 4 independent experiments were analyzed to obtain the mean (and standard deviation) and plotted versus time to assess the loss of enzyme activity over this time course.
Aliquots were collected at 0, 3 and 6 hrs and centrifuged to obtain plasma. These plasma samples were then diluted in potassium acetate buffer (pH 4.0) and assayed for GAA activity using the 4-methylumbeliferyl-α-glucose (4-MUG) fluorogenic substrate. The measured GAA activity for individual samples at each time point was normalized to the 0 hr and expressed as % of initial activity.
Moreover, since Myozyme® has a long plasma half-life (reported to be more than 3 hrs), there is a high probability that an appreciable amount of the enzyme remains in the circulation many hours after the infusion that would also be prone to inactivation.
Based on human plasma PK data, these concentrations are readily obtainable in the clinic.

[6] = rat, iv
GAA KO mice [7] = test: Repeat subcutaneous dosing of rhGAA or rhGAA + 1-DNJ co-formulation in GAA KO mice (Example 13); format: in vivo, mouse; settings: 4 hours after the final SQ dose
Procedure: 12-week old male GAA KO mice in groups of 7 were used in the present study. Each group of mice was administered one of the following treatments:
(2) Lumizyme® alone (20 mg/kg) delivered subcutaneously (SQ); or
(3) Co-formulated Lumizyme® (20 mg/kg) and 1-DNJ (30 mg/kg) SQ.
Each of the treatments were administered to their respective treatment group for a period of 2 weeks. The treatments were administered on Monday and Thursday of each week. SQ injections were administered between the shoulder blades of each mouse receiving treatment. A total of 4 doses was administered to each study animal. Diphenhydramine was administered intraperitoneally (IP) before the 3rd and 4th doses.
rhGAA and glycogen levels were determined according to the following sampling protocol. Blood was taken from each study animal after the 4th dose for plasma pharmacokinetic analysis. GAA activity, Western blots, and 1-DNJ levels were determined for plasma samples taken 2 and 4 hours after the last SQ dose.
Tissue samples were collected to determine rhGAA uptake 3 days following the last dose of the study (i.e., 3 days post dose 4). Tissue samples included heart, diaphragm, tongue, brain, spleen, liver, biceps, triceps, quadriceps, soleus, gastrocnemius, ventral skin and dorsal skin from the SQ injection site. Tissue samples were also collected to determine glycogen concentration 14 days following the last dose of the study (i.e., 14 days post dose 4).

alglucosidase alfa [Myozyme®]
plasma half-life [1]: more than 3 hrs | glycogen reduction in diaphragm (GAA KO mice [2]): 41±4% | glycogen reduction in heart (GAA KO mice [2]): 93±1% | glycogen reduction in quadriceps (GAA KO mice [2]): 18±4% | glycogen reduction in soleus (GAA KO mice [2]): 69±3% | Myozyme® tissue uptake (as a measure of GAA activity) over time (GAA KO mice [3]): declined at 7 days post injection | stability of Myozyme® at lysosomal pH vs ER pH [4]: much more stable at lysosomal pH (5.2) than at ER pH (7.4) | rhGAA activity uptake, Biceps (GAA KO mice [5]): 10.1 nmol/mg/h | rhGAA activity uptake, Diaphragm (GAA KO mice [5]): 7.1 nmol/mg/h | rhGAA activity uptake, Gastrocnemius (GAA KO mice [5]): 17.9 nmol/mg/h | rhGAA activity uptake, Heart (GAA KO mice [5]): 1.8 nmol/mg/h | rhGAA activity uptake, Quadriceps (GAA KO mice [5]): 6.9 nmol/mg/h | rhGAA activity uptake, Skin (GAA KO mice [5]): 27.1 nmol/mg/h | rhGAA activity uptake, Soleus (GAA KO mice [5]): 8.0 nmol/mg/h | rhGAA activity uptake, Tongue (GAA KO mice [5]): 12.4 nmol/mg/h | rhGAA activity uptake, Triceps (GAA KO mice [5]): 3.9 nmol/mg/h

rhGAA: recombinant human acid α-glucosidase; Myozyme® in Examples 7-8, Lumizyme® in Example 13, product not named in Examples 5-6
enzyme inactivated in whole blood (rhGAA (e.g., Myozyme®); by 4 hrs): approximately 40% | enzyme inactivated in whole blood (rhGAA (e.g., Myozyme®); by 8 hrs): ~70% | enzyme inactivated in whole blood (rhGAA (e.g., Myozyme®); by 24 hrs): ~100% | enzyme activity in whole blood (rhGAA (e.g., Myozyme®); incubated with 50 μM 1-DNJ-HCl, up to 24 hrs): remained completely active | in vivo half life of rhGAA [6]: 1.4 ± 0.2 h | plasma rhGAA levels (GAA KO mice [7]): increased compared to the levels in the 2 hour samples
